# Experimental data: the supplement of paper PMC9112550, “Optimization of the antimicrobial peptide Bac7 by deep mutational scanning” (BMC Biology, 2022)
# System: Escherichia coli TOP10
# Assay: shrunken log2 fold change of peptide-encoding DNA abundance (4.5 h post-induction vs induction); higher = less antimicrobial activity (less host growth inhibition)
# Conditions: time post-induction: 4.5 h; library: site-saturation at positions 5, 18, 19, 20
# 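Also: peptides expressed intracellularly from a pBAD plasmid library in pooled LB shake-flask culture, induced with 0.3% L-arabinose, DNA abundance read by NGS, three biological replicates, DESeq2 with apeglm shrinkage.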
row,Sequence,shrunken log2 fold change
1,RRIRRRPPRLPRPRPRPIAMPRP,0.0579
2,RRIRRRPPRLPRPRPRPIFLPRP,0.0228
3,RRIRRRPPRLPRPRPRPIFTPRP,0.2
4,RRIRRRPPRLPRPRPRPIGFPRP,0.0265
5,RRIRRRPPRLPRPRPRPIHIPRP,-0.579
6,RRIRRRPPRLPRPRPRPIHWPRP,-0.0227
7,RRIRRRPPRLPRPRPRPIIRPRP,0.0674
8,RRIRRRPPRLPRPRPRPIKVPRP,-0.186
9,RRIRRRPPRLPRPRPRPIKWPRP,0.0148
10,RRIRRRPPRLPRPRPRPILFPRP,-0.026
11,RRIRRRPPRLPRPRPRPIMDPRP,0.01
12,RRIRRRPPRLPRPRPRPIMHPRP,-0.094
13,RRIRRRPPRLPRPRPRPINRPRP,0.0995
14,RRIRRRPPRLPRPRPRPIPHPRP,0.822
15,RRIRRRPPRLPRPRPRPIPWPRP,0.312
16,RRIRRRPPRLPRPRPRPIQCPRP,0.00305
17,RRIRRRPPRLPRPRPRPIQRPRP,0.168
18,RRIRRRPPRLPRPRPRPIRCPRP,0.334
19,RRIRRRPPRLPRPRPRPIRKPRP,-0.0416
20,RRIRRRPPRLPRPRPRPISIPRP,-0.0402

row,Sequence,shrunken log2 fold change
1,RRIRRRPPRLPRPRPRPITSPRP,-0.00199
2,RRIRRRPPRLPRPRPRPIVFPRP,0.00406
3,RRIRRRPPRLPRPRPRPIVVPRP,0.115
4,RRIRRRPPRLPRPRPRPIWKPRP,-0.184
5,RRIRRRPPRLPRPRPRPIWYPRP,0.00744
6,RRIRRRPPRLPRPRPRPKCTPRP,-0.373
7,RRIRRRPPRLPRPRPRPKDGPRP,0.378
8,RRIRRRPPRLPRPRPRPKEMPRP,0.0252
9,RRIRRRPPRLPRPRPRPKEWPRP,0.044
10,RRIRRRPPRLPRPRPRPKFWPRP,0.278
11,RRIRRRPPRLPRPRPRPKHIPRP,0.0894
12,RRIRRRPPRLPRPRPRPKLFPRP,0.37
13,RRIRRRPPRLPRPRPRPKLIPRP,-0.395
14,RRIRRRPPRLPRPRPRPKNCPRP,0.0654
15,RRIRRRPPRLPRPRPRPKNTPRP,-0.0507
16,RRIRRRPPRLPRPRPRPKPAPRP,0.347
17,RRIRRRPPRLPRPRPRPKQFPRP,-0.00581
18,RRIRRRPPRLPRPRPRPKRAPRP,0.52
19,RRIRRRPPRLPRPRPRPKTHPRP,0.126
20,RRIRRRPPRLPRPRPRPKVEPRP,-0.0016

row,Sequence,shrunken log2 fold change
1,RRIRRRPPRLPRPRPRPLAKPRP,0.571
2,RRIRRRPPRLPRPRPRPLCPPRP,1.21
3,RRIRRRPPRLPRPRPRPLDCPRP,0.107
4,RRIRRRPPRLPRPRPRPLDFPRP,0.184
5,RRIRRRPPRLPRPRPRPLDYPRP,-0.324
6,RRIRRRPPRLPRPRPRPLEKPRP,0.477
7,RRIRRRPPRLPRPRPRPLFIPRP,-0.27
8,RRIRRRPPRLPRPRPRPLFRPRP,0.109
9,RRIRRRPPRLPRPRPRPLGVPRP,0.238
10,RRIRRRPPRLPRPRPRPLHIPRP,0.212
11,RRIRRRPPRLPRPRPRPLKFPRP,-0.149
12,RRIRRRPPRLPRPRPRPLKIPRP,-0.0377
13,RRIRRRPPRLPRPRPRPLMAPRP,0.312
14,RRIRRRPPRLPRPRPRPLMGPRP,0.018
15,RRIRRRPPRLPRPRPRPLMMPRP,0.8
16,RRIRRRPPRLPRPRPRPLMPPRP,0.297
17,RRIRRRPPRLPRPRPRPLQAPRP,0.98
18,RRIRRRPPRLPRPRPRPLQDPRP,0.0495
19,RRIRRRPPRLPRPRPRPLRGPRP,0.732
20,RRIRRRPPRLPRPRPRPLSDPRP,0.144
